± gives the uncertainty stated by the source.
B1: Probable E3 ubiquitin-protein ligase MID2, residues 191 to 235; numbered along this chain, Q9UJV3 (parent)
chain: RGITCLDHENEKVNMYCVSDDQLICALCKLVGRHRDHQVASLNDR
B2: Zinc finger homeobox protein 3, residues 2244 to 2299; numbered along this chain, Q15911 (parent)
chain: SSRTRFTDYQLRVLQDFFDANAYPKDDEFEQLSNLLNLPTRVIVVWFQNARQKARK

Variants of: B1
Experiment: abundance fitness (aPCA) (normalised: wild type 0, dead -1); higher = more abundant; growth selection in yeast, the domain comes from the species named
Settings: Homo sapiens

| Variant | abundance fitness |
| --- | --- |
| D44A | -0.152 ± 0.062 |
| D44K | -0.175 ± 0.083 |
| D44E | 0.003 ± 0.14 |
| D44V | -0.211 ± 0.064 |
| D44Q | -0.234 ± 0.33 |
| D44G | -0.075 ± 0.057 |
| D44W | -0.472 ± 0.13 |
| D44T | -0.122 ± 0.11 |
| D44P | -0.061 ± 0.13 |
| D44S | -0.067 ± 0.074 |
| D44F | -0.422 ± 0.12 |
| D44Y | -0.285 ± 0.29 |
| D44M | -0.187 ± 0.17 |
| D44C | -0.452 ± 0.17 |
| D44L | -0.427 ± 0.1 |
| N43H | -0.016 ± 0.079 |
| N43E | 0.192 ± 0.065 |
| N43D | -0.036 ± 0.12 |
| N43A | 0.1 ± 0.059 |
| N43S | -0.022 ± 0.057 |
| N43K | 0.164 ± 0.071 |
| N43V | -0.042 ± 0.086 |
| N43Q | -0.043 ± 0.068 |
| N43L | -0.126 ± 0.067 |
| N43T | 0.008 ± 0.087 |
| N43G | -0.011 ± 0.056 |
| N43P | 0.062 ± 0.064 |

| Variant | abundance fitness |
| --- | --- |
| N43R | -0.154 ± 0.054 |
| N43W | -0.405 ± 0.088 |
| N43C | -0.097 ± 0.1 |
| N43M | -0.252 ± 0.19 |
| N43I | -0.275 ± 0.2 |
| L42T | -0.096 ± 0.086 |
| L42S | 0.046 ± 0.06 |
| L42V | -0.016 ± 0.052 |
| L42Y | -0.127 ± 0.11 |
| L42W | -0.198 ± 0.07 |
| R45A | 0.178 ± 0.12 |
| R45C | 0.018 ± 0.072 |
| R45V | -0.105 ± 0.084 |
| R45M | -0.201 ± 0.2 |
| R45E | 0.276 ± 0.079 |
| R45L | -0.253 ± 0.088 |
| R45F | 0.151 ± 0.23 |
| R45W | -0.164 ± 0.082 |
| R45Q | 0.033 ± 0.06 |
| R45D | -0.087 ± 0.14 |
| R45G | 0.15 ± 0.067 |
| R45T | -0.04 ± 0.1 |
| R45P | 0.041 ± 0.096 |
| R45K | 0.025 ± 0.11 |
| R45S | 0.084 ± 0.076 |
| R45H | 0.256 ± 0.29 |
| R45I | -0.033 ± 0.13 |

Variants of: B2
Experiment: as above
Settings: Homo sapiens

| Variant | abundance fitness |
| --- | --- |
| L11I | 0.055 ± 0.17 |
| L11V | 0.015 ± 0.078 |
| L11G | -0.171 ± 0.09 |
| L11F | -0.364 ± 0.14 |
| L11K | -0.146 ± 0.18 |
| L11E | 0.038 ± 0.12 |
| L11Y | -0.404 ± 0.2 |
| L11W | -0.361 ± 0.11 |
| L11H | -0.203 ± 0.19 |
| L11M | 0.204 ± 0.16 |
| L11A | -0.181 ± 0.084 |
| L11S | 0.062 ± 0.089 |
| L11T | 0.172 ± 0.15 |
| L11C | -0.743 ± 0.16 |
| L11N | 0.007 ± 0.19 |
| L11R | -0.141 ± 0.09 |
| Q15D | -0.172 ± 0.15 |
| Q15F | -0.299 ± 0.17 |
| Q15S | -0.22 ± 0.096 |
| Q15E | 0.015 ± 0.12 |
| Q15Y | -0.559 ± 0.31 |
| Q15R | -0.213 ± 0.078 |
| Q15L | -0.079 ± 0.095 |

| Variant | abundance fitness |
| --- | --- |
| Q15N | -0.077 ± 0.18 |
| Q15K | -0.243 ± 0.18 |
| Q15V | -0.319 ± 0.088 |
| Q15W | -0.213 ± 0.099 |
| Q15G | -0.01 ± 0.073 |
| Q15T | -0.113 ± 0.12 |
| Q15H | -0.036 ± 0.19 |
| Q15M | -0.155 ± 0.13 |
| Q15P | -0.889 ± 0.17 |
| Q15C | -0.668 ± 0.16 |
| R5G | 0.19 ± 0.067 |
| R5F | 0.234 ± 0.1 |
| R5D | 0.423 ± 0.084 |
| R5S | 0.2 ± 0.072 |
| R5C | 0.323 ± 0.081 |
| R5W | 0.234 ± 0.097 |
| R5I | 0.323 ± 0.092 |
| R5K | 0.29 ± 0.11 |
| R5M | 0.478 ± 0.11 |
| R5Q | 0.092 ± 0.11 |
| R5V | 0.362 ± 0.069 |
| R5L | 0.197 ± 0.072 |
| R5N | 0.305 ± 0.099 |

| Variant | abundance fitness |
| --- | --- |
| R5H | 0.218 ± 0.12 |
| R5T | 0.274 ± 0.084 |
| R5E | 0.321 ± 0.096 |
| R5P | 0.026 ± 0.092 |
| R5Y | 0.344 ± 0.088 |
| R5A | 0.213 ± 0.071 |
| S1C | 0.079 ± 0.21 |
| S1T | 0.003 ± 0.27 |
| S1R | -0.097 ± 0.38 |
| S1P | -0.636 ± 0.36 |
| S1F | -0.357 ± 0.41 |
| S1D | 0.137 ± 0.34 |
| S1E | 0.181 ± 0.42 |
| S1L | -0.179 ± 0.16 |
| S1I | 0.252 ± 0.3 |
| S1W | -0.939 ± 0.21 |
| S1G | 0.256 ± 0.15 |
| S1M | -0.277 ± 0.29 |
| S1A | -0.047 ± 0.15 |
| S1N | 0.158 ± 0.3 |
| S1V | -0.158 ± 0.2 |
| D8A | -0.123 ± 0.082 |
| D8K | -0.027 ± 0.14 |

| Variant | abundance fitness |
| --- | --- |
| D8M | -0.202 ± 0.14 |
| D8V | -0.405 ± 0.086 |
| D8E | -0.138 ± 0.1 |
| D8N | -0.237 ± 0.15 |
| D8I | -0.641 ± 0.25 |
| D8R | -0.173 ± 0.099 |
| D8G | -0.145 ± 0.1 |
| D8T | -0.158 ± 0.1 |
| D8P | -0.235 ± 0.13 |
| D8H | -0.269 ± 0.33 |
| D8F | -0.591 ± 0.24 |
| D8L | -0.332 ± 0.093 |
| D8W | -0.401 ± 0.14 |
| D8Q | -0.035 ± 0.17 |
| D8C | -0.022 ± 0.17 |
| S2Q | -0.093 ± 0.27 |
| S2T | 0.214 ± 0.12 |
| S2E | 0.182 ± 0.15 |
| S2N | 0.007 ± 0.16 |
| S2C | -0.118 ± 0.17 |
| S2I | 0.393 ± 0.2 |
| S2F | -0.214 ± 0.17 |
| S2H | -0.043 ± 0.22 |

| Variant | abundance fitness |
| --- | --- |
| S2D | 0.21 ± 0.11 |
| S2Y | 0.097 ± 0.15 |
| S2M | 0.321 ± 0.18 |
| S2V | 0.042 ± 0.1 |
| S2W | -0.255 ± 0.14 |
| S2A | -0.353 ± 0.12 |
| S2K | -0.194 ± 0.18 |
| S2G | -0.006 ± 0.093 |
| S2R | -0.299 ± 0.11 |
| S2L | 0.026 ± 0.12 |
| T7H | -0.665 ± 0.19 |
| T7K | -0.272 ± 0.16 |
| T7R | -0.556 ± 0.086 |
| T7Y | -0.446 ± 0.2 |
| T7N | -0.565 ± 0.21 |
| T7P | -0.84 ± 0.17 |
| T7C | -0.563 ± 0.14 |
| T7D | -0.258 ± 0.14 |
| T7F | -0.725 ± 0.24 |
| T7M | -0.46 ± 0.13 |
| T7L | -0.363 ± 0.11 |

— the Human Domainome abundance scans (Beltran et al. 2025)
